Changes are numbered by the printed parent chain.

Experiment [1] deals with T1, ScPex1^G700D (Pex1-FLAG G700D), Saccharomyces cerevisiae (Saccharomyces cerevisiae, UniProt P24004 1-1043, G700D).
T1 construct: Pex1, Saccharomyces cerevisiae, with G700D (homologous to human G843D); source: E. coli BL21, coexpressed with His-Pex6, purified (Ni-NTA, anti-FLAG M2 agarose, Superose 6)
T1 sequence (looked up): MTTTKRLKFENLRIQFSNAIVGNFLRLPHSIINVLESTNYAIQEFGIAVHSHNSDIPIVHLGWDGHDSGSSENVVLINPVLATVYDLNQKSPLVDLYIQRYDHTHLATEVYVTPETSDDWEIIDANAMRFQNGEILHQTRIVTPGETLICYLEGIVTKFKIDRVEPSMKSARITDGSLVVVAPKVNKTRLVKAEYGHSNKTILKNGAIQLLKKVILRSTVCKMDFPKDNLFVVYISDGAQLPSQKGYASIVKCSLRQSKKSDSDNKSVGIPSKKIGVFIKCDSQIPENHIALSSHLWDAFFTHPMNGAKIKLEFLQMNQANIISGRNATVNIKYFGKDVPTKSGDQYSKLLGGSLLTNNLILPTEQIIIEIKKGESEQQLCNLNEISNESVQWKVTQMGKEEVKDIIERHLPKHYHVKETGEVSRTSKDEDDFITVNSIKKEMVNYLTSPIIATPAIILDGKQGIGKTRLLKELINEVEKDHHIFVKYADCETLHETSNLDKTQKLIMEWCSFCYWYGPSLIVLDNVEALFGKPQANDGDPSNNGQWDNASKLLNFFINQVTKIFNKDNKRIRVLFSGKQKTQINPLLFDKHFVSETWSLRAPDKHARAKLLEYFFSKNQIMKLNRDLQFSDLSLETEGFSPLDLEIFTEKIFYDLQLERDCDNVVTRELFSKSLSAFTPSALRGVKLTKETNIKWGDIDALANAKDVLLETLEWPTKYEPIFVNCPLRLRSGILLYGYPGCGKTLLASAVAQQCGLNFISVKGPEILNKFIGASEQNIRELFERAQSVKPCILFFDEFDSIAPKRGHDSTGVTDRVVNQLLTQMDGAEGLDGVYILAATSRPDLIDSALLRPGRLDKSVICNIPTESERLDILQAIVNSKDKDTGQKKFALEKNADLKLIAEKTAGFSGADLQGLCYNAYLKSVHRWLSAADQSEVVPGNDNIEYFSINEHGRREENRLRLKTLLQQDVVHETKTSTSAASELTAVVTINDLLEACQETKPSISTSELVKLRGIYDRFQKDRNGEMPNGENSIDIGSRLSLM
The experiment can be described thus: SEC; coexpressed complex purified by Ni-NTA and anti-FLAG resin, equal concentrations of FLAG eluate loaded on Superose 6 in GF buffer (50-60 mM Hepes pH 7.6, 50 mM NaCl, 50 mM KCl, 5% glycerol, 10 mM MgCl2, 1 mM ATP); fractions by SDS-PAGE and Coomassie. As to conditions: both partners purified. For orientation: Size exclusion chromatography separates by hydrodynamic size, large species first.

Experiment [2] deals with T2, ScPex1^WT (Pex1-FLAG), Saccharomyces cerevisiae (Saccharomyces cerevisiae, UniProt P24004 1-1043).
T2 construct: Pex1, Saccharomyces cerevisiae; Expressed from pETDuet; Forms a heterohexamer with Pex6; also called yeast Pex1; source: E. coli BL21, coexpressed with His-Pex6, purified (Ni-NTA, anti-FLAG M2 agarose, Superose 6)
T2 sequence (looked up): T1 sequence (looked up) with D700G
The description is as above. The conditions noted are these: both partners purified.

B1: ScPex6 (His-Pex6), Saccharomyces cerevisiae (natural protein)
chain: MKASLTFSLSGIYAPCSISRDIYLEYGDKKAECLYGTIRLPQYGPGCTPGKIVHCVLDDSLPFCSIVVPSKLFGFMPTQPTMDFCYFEPILDNVVPVLDSVTFLINEQLYSKLMDLPQEMQQIQFLHYKYNINSMETVVHSRDILTSGLCQILNCSPFPQGLVDFTETQLILVNDTEQKLSALKYANEDEEYALPKIGTNSALSIDLESLPCTISRDLLRPAPHINDDNSIYAFTDAETLLRLDVTSGSFITVSNMGCVRLVKLFVLLLPNGFKKRTIYAPPKIIASFPDCSVVTISKSNIGHTDIPIANQVFISRVGGWLQSQKCFQNIILTTLKKFFSESKRILCQNDLIPIAFDSSMADLNIAEENDESDDEDELGQYYKNDSLVWFFVTSAELDCFSKDNSHFIIDPNRTKLITTNITNRRPLPLSRSNLQRYYGFAETFYYDLHIFPYVRQLVNILETSFNCSQRGITLNASVLLHSTTNNVGKATMVRFASKYLGIHLLEIDCLSLTSNSRQLDSTSKIIGYIRAKCENVLPYASPAVIFLAHLDSILLDVNANQDPEAIKLQKSINFEMSKLLDDFTFKFPGTTFVGSVNNIDNVPSSFRSHMRFEILVPVPSEAQRLRIFQWYLSSHELNRDVQQKVPVSYMDNISFSSLSSYSAGLTPLDIKSIVETARMTATARFYQESKKCGWLPQSILITQEDLSKATSKARNEFSVSIGAPQIPNVTWDDIGGIDFVKGEILDTIDMPLKHPELFTSGMKKRSGILFYGPPGTGKTLMAKAIATNFSLNFFSVKGPELLNMYIGESEANVRRVFQKAREAKPCVIFFDEIDSVAPKRGNQGDSGGVMDRIVSQLLAELDGMSTDADGVFVIGATNRPDLLDEALLRPGRFDKLLYLGIPDTDTKQLNILEALTRKFVLDNDVKLIELAKLCPFNYTGADFYALCSDAMLNAMSRIARMVEKKVSQHNELTGENISTRRWFDKIATKEDTKVVVKMEDFLKAQEQLTPSVSRAELNHYEAVRANFEGA
notes: Pex6, Saccharomyces cerevisiae; Expressed from pCOLADuet; source: E. coli BL21, coexpressed with Pex1-FLAG, purified (Ni-NTA, anti-FLAG M2 agarose, Superose 6)
On to B1, for which the binding result in experiment [1] and in experiment [2] was “binds” throughout.
